B1: Ubc2 (yeast) (enzyme, Saccharomyces cerevisiae, UniProt P06104 1-172, looked up)
chain: MSTPARRRLMRDFKRMKEDAPPGVSASPLPDNVMVWNAMIIGPADTPYEDGTFRLLLEFDEEYPNKPPHVKFLSEMFHPNVYANGEICLDILQNRWTPTYDVASILTSIQSLFNDPNPASPANVEAATLFKDHKSQYVKRVKETVEKSWEDDMDDMDDDDDDDDDDDDDEAD

Experiment [1] concerns the target B1. Briefly: ITC. On the technique in general: ITC needs no label: the signal is the heat of the interaction.
In experiment [2] the target is Ubr1 (yeast, FLAG-tagged) (Saccharomyces cerevisiae, UniProt P19812 1-1950). Briefly: cryo-EM structure.
Sequence of Ubr1 (yeast, FLAG-tagged) (P19812 whole entry): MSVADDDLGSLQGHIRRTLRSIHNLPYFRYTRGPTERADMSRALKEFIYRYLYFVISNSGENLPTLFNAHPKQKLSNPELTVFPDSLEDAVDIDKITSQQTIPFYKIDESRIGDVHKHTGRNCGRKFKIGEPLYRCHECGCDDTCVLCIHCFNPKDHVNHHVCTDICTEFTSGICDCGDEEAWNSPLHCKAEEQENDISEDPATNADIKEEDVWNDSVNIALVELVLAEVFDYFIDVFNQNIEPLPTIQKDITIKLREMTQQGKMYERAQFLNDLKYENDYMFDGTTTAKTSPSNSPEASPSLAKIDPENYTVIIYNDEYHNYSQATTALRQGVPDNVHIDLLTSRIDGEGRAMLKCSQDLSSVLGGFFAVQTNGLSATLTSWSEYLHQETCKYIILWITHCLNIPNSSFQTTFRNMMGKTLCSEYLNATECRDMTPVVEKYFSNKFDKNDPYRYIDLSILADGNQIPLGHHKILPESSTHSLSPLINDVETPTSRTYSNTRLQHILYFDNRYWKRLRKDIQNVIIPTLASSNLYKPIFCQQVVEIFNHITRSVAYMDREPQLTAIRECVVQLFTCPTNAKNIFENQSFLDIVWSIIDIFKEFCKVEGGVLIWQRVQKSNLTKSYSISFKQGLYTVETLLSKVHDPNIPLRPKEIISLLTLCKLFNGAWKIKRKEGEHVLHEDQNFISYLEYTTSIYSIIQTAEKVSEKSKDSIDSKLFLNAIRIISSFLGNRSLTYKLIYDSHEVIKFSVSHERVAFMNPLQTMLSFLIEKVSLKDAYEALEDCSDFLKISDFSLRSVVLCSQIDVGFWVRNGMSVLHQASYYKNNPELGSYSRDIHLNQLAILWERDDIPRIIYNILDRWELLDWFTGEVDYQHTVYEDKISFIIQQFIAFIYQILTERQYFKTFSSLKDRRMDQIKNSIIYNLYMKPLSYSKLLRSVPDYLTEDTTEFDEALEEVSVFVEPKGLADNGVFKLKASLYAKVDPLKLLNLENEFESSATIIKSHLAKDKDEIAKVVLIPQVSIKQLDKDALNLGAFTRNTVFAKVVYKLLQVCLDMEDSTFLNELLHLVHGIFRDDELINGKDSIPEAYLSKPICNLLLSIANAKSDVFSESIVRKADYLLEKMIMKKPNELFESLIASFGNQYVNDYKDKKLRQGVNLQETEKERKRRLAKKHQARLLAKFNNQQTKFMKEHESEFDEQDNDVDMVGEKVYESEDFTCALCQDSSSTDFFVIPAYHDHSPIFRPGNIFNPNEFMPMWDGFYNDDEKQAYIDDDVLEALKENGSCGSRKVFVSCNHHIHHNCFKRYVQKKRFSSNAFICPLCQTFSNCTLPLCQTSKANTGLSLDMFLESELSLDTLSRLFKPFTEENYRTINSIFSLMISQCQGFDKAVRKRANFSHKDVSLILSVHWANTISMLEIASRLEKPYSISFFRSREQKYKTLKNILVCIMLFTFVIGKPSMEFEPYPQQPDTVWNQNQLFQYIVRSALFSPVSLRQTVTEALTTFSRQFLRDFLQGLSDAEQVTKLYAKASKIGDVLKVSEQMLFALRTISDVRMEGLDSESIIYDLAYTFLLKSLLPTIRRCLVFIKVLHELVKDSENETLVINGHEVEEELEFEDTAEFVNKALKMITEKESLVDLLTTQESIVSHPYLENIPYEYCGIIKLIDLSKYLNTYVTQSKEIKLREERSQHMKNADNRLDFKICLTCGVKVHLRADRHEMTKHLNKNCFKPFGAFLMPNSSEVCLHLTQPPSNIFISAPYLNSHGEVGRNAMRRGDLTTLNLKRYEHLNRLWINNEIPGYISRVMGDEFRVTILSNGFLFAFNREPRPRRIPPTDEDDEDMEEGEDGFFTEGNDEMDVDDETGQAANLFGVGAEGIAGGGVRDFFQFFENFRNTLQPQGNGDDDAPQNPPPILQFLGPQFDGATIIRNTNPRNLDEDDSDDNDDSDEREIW

The molecule KERKRRLAKKHQARLLAKFNNQQTKFMKEHESEFDE (peptide, UniProt P19812 1165-1200, looked up) [U2BR peptide (Ubr1 1165-1200)] yielded an equilibrium dissociation constant (Kd) in experiment [1] of 143 ± 45 nM.
Take B1: in experiment [2], the binding result is recorded as “binds”.

What is called Kd is a measure of binding affinity in units of concentration. Low values mean higher affinity, high ones lower affinity.

These data come from article doi:10.1101/2021.04.12.439291 (bioRxiv, 2021).
